# Laboratory results as given in PMC8626469 (2021).
# T1: Helicobacter pylori FabX (H. pylori)
# T1 chain: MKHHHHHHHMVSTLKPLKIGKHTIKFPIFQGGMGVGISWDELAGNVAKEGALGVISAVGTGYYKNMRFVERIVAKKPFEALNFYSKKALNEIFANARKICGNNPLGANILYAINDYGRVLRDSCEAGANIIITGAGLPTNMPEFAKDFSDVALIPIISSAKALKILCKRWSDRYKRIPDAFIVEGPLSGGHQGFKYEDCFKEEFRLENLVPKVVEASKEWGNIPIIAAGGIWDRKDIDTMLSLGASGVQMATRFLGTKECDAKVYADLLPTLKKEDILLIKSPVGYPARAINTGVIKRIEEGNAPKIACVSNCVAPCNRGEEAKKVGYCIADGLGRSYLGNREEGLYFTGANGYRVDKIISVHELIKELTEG
# How the values were obtained:
# [1] = target: Helicobacter pylori FabX R164A (H. pylori); test: ITC
# Helicobacter pylori FabX = target: T1, Helicobacter pylori FabX; test: ITC
binder,measurement,setting,value
"Helicobacter pylori holo-acyl carrier protein (natural protein, phosphopantetheine group (PPant) on Ser36) MALFEDIQAVIAEQLNVDAVQVTPEAEFVKDLGADSLDVVELIMALEEKFGVEIPDEQAEKIINVGDVVKYIEDNKLA",Kd,[1],> 200 µM
same,Kd,Helicobacter pylori FabX,1.64 µM
